Laboratory results published in publication doi:10.1101/2020.05.08.083964 (bioRxiv, 2020).

Tests used:
[1] = target: T1, extracellular domain of the SARS-CoV-2 S protein (S-ECD) (SARS-CoV-2, Wuhan-Hu-1); assay: cell-based or functional assay
[2] = target: T1, extracellular domain of the SARS-CoV-2 …; assay: BLI
[3] = target: S-ECD of SARS-CoV-2 (cryo-EM sample) (SARS-CoV-2, Wuhan-Hu-1); assay: cryo-EM structure

B1: 4A8 (antibody, V domains shown)
VH: EVQLVESGAEVKKPGASVKVSCKVSGYTLTELSMHWVRQAPGKGLEWMGGFDPEDGETMYAQKFQGRVTMTEDTSTDTAYMELSSLRSEDTAVYYCATSTAVAGTPDLFDYYYGMDVWGQGTTVTVSS
VL: EIVMTQSPLSSPVTLGQPASISCRSSQSLVHSDGNTYLSWLQQRPGQPPRLLIYKISNRFSGVPDRFSGSGAGTDFTLKISRVEAEDVGVYYCTQATQFPYTFGQGTKVDIK
neutralization of live (authentic) SARS-CoV-2 in Vero-E6 cells, EC50 [1]: 0.607 µg/mL | Kd [2]: < 2.14 nM | stoichiometry N [3]: 3
